Reference: paper PMC11410943

Substrate: Cn1c(=O)ccc2ccc(F)c(CCNC[C@H]3CN(c4cnc5c(n4)NC(=O)CO5)C(=O)O3)c21
Test: OAT3 transport in HEK293 cells
Type: in vitro ADME, human
Settings: other: HEK293; 37.0 °C

B1: OAT3 (Homo sapiens) (protein)
chain: MTFSEILDRVGSMGHFQFLHVAILGLPILNMANHNLLQIFTAATPVHHCRPPHNASTGPWVLPMGPNGKPERCLRFVHPPNASLPNDTQRAMEPCLDGWVYNSTKDSIVTEWDLVCNSNKLKEMAQSIFMAGILIGGLVLGDLSDRFGRRPILTCSYLLLAASGSGAAFSPTFPIYMVFRFLCGFGISGITLSTVILNVEWVPTRMRAIMSTALGYCYTFGQFILPGLAYAIPQWRWLQLTVSIPFFVFFLSSWWTPESIRWLVLSGKSSKALKILRRVAVFNGKKEEGERLSLEELKLNLQKEISLAKAKYTASDLFRIPMLRRMTFCLSLAWFATGFAYYSLAMGVEEFGVNLYILQIIFGGVDVPAKFITILSLSYLGRHTTQAAALLLAGGAILALTFVPLDLQTVRTVLAVFGKGCLSSSFSCLFLYTSELYPTVIRQTGMGVSNLWTRVGSMVSPLVKITGEVQPFIPNIIYGITALLGGSAALFLPETLNQPLPETIEDLENWSLRAKKPKQEPEVEKASQRIPLQPHGPGLGSS
With B1 the Km was 121 µM and the Vmax was 76.1 pmol/mg/min.
